Results reported in PMC9007595 (Molecular microbiology, 2020).

Columns and labels:
Experiment in all cases: cross-linking
[1] = target: Mycobacterium tuberculosis HtpG-His6 with para-benzoyl-phenylalanine at F635 (Mycobacterium tuberculosis) (UniProt P9WMJ7)
[2] = target: Mycobacterium tuberculosis HtpG-His6 with para-benzoyl-phenylalanine at W197 (Mycobacterium tuberculosis) (UniProt P9WMJ7)
[3] = target: Mycobacterium tuberculosis HtpG-His6 with para-benzoyl-phenylalanine at F10 (Mycobacterium tuberculosis) (UniProt P9WMJ7)

With “Mycobacterium tuberculosis HtpG-His6 with para-benzoyl-phenylalanine at F635 (from UniProt P9WMJ7 1-647) (natural protein)” as the substance, how does the stoichiometry N [1] read?
Its stoichiometry N is 2.

With “Mycobacterium tuberculosis HtpG-His6 with para-benzoyl-phenylalanine at W197 (from UniProt P9WMJ7 1-647) (natural protein)” as the substance, how does the stoichiometry N [2] read?
Its stoichiometry N is 2.

Which stoichiometry N [3] does the source give for “Mycobacterium tuberculosis HtpG-His6 with para-benzoyl-phenylalanine at F10 (from UniProt P9WMJ7 1-647) (natural protein)” here?
Its stoichiometry N is 2.
